Results taken from the DeepSol protein solubility set.

Assay: soluble on expression in E. coli; label from the status in PepcDB or PDB records

| Sequence | soluble on expression in E. coli |
| --- | --- |
| QDFAEIYARFSDERANEQANRCSQCGVPFCQVHCPVSNNIPDWLKLTSEGRLEEAYEVSQATNNFPEICGRICPQDRLCEGNCVIEQSTHGAVTIGSVEKYINDTAWDQGWVKPRTPSRELGLSVGVIGAGPAGLAAAEELRAKGYEVHVYDRYDRMGGLLVYGIPGFKLEKSVVERRVKLLADAGVIYHPNFEVGRDASLPELRRKHVAVLVATGVYKARDIKAPGSGLGNIVAALDYLTTSNKVSLGDTVEAYENGSLNAAGKHVVVLGGGDTAMDCVRTAIRQGATSVKCLYRRDRKNMPGSQREVAHAEEEGVEFIWQAAPEGFTGDTVVTGVRAVRIHLGVADATGRQTPQVIEGSEFTVQADLVIKALGFEPEDLPNAFDEPELKVTRWGTLLVDHRTKMTNMDGVFAAGDIVRGASLVVWAIRDGRDAAEGIHAYAKAKAEAPVAVAAE | soluble |
| MGSDKIHHHHHHMMSDEKNLGVSQKLVSPSRSTSSCSSKQGSRQDSWEVVEGLRGEMNYTQEPPVQKGFLLKKRKWPLKGWHKRFFYLDKGILKYAKSQTDIEREKLHGCIDVGLSVMSVKKSSKCIDLDTEEHIYHLKVKSEEVFDEWVSKLRHHRMYRQNEIAMFPHEVNHFFSGSTITDSSSGVFDSISSRKRSSISKQNLFQTGSNVSFSCGGETRVPLWLQSSEDMEKCSKDLAHCHAYLVEMSQLLQSMDVLHRTYSAPAINAIQGGSFESPKKEKRSHRRWRSRAIGKDAKGTLQVPKPFSGPVRLHSSNPNLSTLDFGEEKNYSDGSETSSEFSKMQEDLCHIAHKVYFTLRSAFNIMSAEREKLKQLMEQDASSSPSAQVIGLKNALSSALAQNTDLKERLRRIHAESLLLDSPAVAKSGDNLAEENSRDENRALVHQLSNESRLSITDSLSEFFDAQEVLLSPSSSENEISDDDSYVSDISDNLSLDNLSNDLDNERQTLGPVLDSGREAKSRRRTCLPAPCPSSSNISLWNILRNNIGKDLSKVAMPVELNEPLNTLQRLCEELEYSELLDKAAQIPSPLERMVYVAAFAISAYASSYYRAGSKPFNPVLGETYECIREDKGFQFFSEQVSHHPPISACHAESRNFVFWQDVRWKNKFWGKSMEIVPIGTTHVTLPVFGDHFEWNKVTSCIHNILSGQRWIEHYGEIVIKNLHDDSCYCKVNFIKAKYWSTNAHEIEGTVFDRSGKAVHRLFGKWHESIYCGGGSSSACVWRANPMPKGYEQYYSFTQFALELNEMDPSSKSLLPPTDTRFRPDQRFLEEGNLEEAEIQKQRIEQLQRERRRVLEENHVEHQPRFFRKSDDDSWVSNGTYLELRKDLGFSKLDHPVLW | not soluble |
| MFARAPFVRLLSTTSRNLAEAEKKVSKEALMALRKKTGYSYVNCRKALIQFGENDMDSAVKWLKEAAAKEGWAKAAKLGTRVTSNGLVSVVTDNSTAAVVELSCETDFVARSGAFKDLLSNISNSVLAKAKPQSISSGSKLQEFTYDLGDLTDSDGKNMREVLSLSIGKLGENMTVRRVKAFKAPEGTTLFGASHPKDGTDDIPMGRFISLIALNQSSPGSISSQQLAGQICQHIIGMSPESLGEAAESVKTQEGLRSQEGHDPNADPVVVTNIDESETALLRQAFMLNPSQSVHEYLKSHNANILDFVRVELGSE | not soluble |
| PYSYDLIFGDVNTTNFYAQFAKKHNTHMWSKIQSTQNGEIGFHKNSKTGQQRH | soluble |
| MGSDKIHHHHHHMLTSSWIKQLPLTAITQVTPVGGGDVNQAYRIDTATKPYFLLVQPGYPADFYAGEIAGLKAFDEAQILAPRVIANGQIEGDGFLLLSFLTSGNGSQRDLGRLVAHLHQHHEPNGRFGFDYPYAGTSVSFTNTWTDSWADLFIHQRLDKLAAHLLKKELWQADDEATFQQVRTIISKTLAHHHSDASLLHGDLWGGNYMFTADGQPALIDPAAVYGDRELDIGVTTVFGGFTQDFYTGYQEVYPLDAGYHFRLDFYRLYYLMVHLDKFGMGYAGSVAAVMNQILDHGLTE | not soluble |
| MGSDKIHHHHHHMNEKELAGWFPQAKLSQEADAQSLALGDGRYLNLADADLTERERYLLSLLSHPQEQKPSSPWQSYLHGQSSLPQAVEAIQFIHVHLWSQKDAQLDAWQTMMTDLLPSQLAQVQLSSQDYLFIIEQSRWTDYQTILADTLSALEFDFGLRLTFLVGQVWSRQLADRWSQLYQAEAALFAHWRAHYHQSTVLSFSQLFLWGQGRAGLEFGMIKASMLQLIDQQDMQDIILALWTEGAVVTKTAQILYIHRNTLQYRLDKWQDLTGLQLKDLTDLSFCYQVLLDRLF | not soluble |
| VTSSLPTVQRVIQNALEVSQLKYSQHPRPGGAPPALIVELPGERKLKINTILSVGEHSVRVEAFVCRKPDENREDVYRFLLRRNRRLYGVAYTLDNVGDIYLVGQMALSAVDADEVDRVLGQVLEVVDSDFNALLELGFRSSIQREWQWRLSRGESLQNLQAFAHLRPTTMQSAQRDEKELGG | soluble |
| MSSTKKDIKVYVNYRDEYAEPKIISALKNSGKELTFTNSAKEANFQWAQYEDIDFDEVYKNPKTKLCCSYVIRKALIRKEYLWRTVITYLAKHPDSILSKSVPEAYSLELDYAEFLDDSLMEAYELRQELEENATKNISEKQWYILKPSMCDRAQGIRLFSTIEELQAIFDSFDDEESESEEAGLEEKGDITVAFNNKIVISQIRNFLVQKYISKPLLLDHRKFHIRAYVLATGALSVYLFNEMLCLLARDKYKKPTPDPDLLFSHLSNTCLQGDNVEQSSIRDFWNTSIENKDDIFKSILNIIGDVFEAAATTQGIHFQPLENCFEIFGVDFLVDCESQVYLLEVNSYPDFKQTGKNLSNIIENLFSAVVETAIIPFFESSTKRNVDSKLTLAKKLQLFGFR | soluble |
| MLNVEPSFAEELRSSGVSLSATYLGSVPVVESINVMVSEMRVQVVSLVFLMA | not soluble |
| MNKIAIQKPNIPENLQTADFHDAVTQDDVISMHLFEDCTICGEDIERLCVEKTVFRNVVFIDVSFRHIELTDVIFEKCDLSNADFSGAVIHRTSVKQSKMVGMNVAEATLRNVSFEECHGHFSSFSYSNMKQVRFDHCALMQSECSDTVLQQTHFDGCELEGASFTGTSLQNMDISTCRFEQLHVSLDKLKGCKIAPEHAIAFARALGAVIVLEHHHHHH | soluble |
| GPGSMCNDDARQEGVQWPSSQQLAALADIEGDVQMKAAQLGLLSSEYRANIARVLHHYEPQAATFRTIIYASEQKRKAVERELVWTERIALLQEQRCGTTIVSTRDLMVLEREPLHPVECSLKECYQKLENVAYNELCVLRNYEYPPRQAVATMRMIMRVRGEEDLSWENVQVVLSENYFYTFFVSRMRTLLQKRLPDDVLEELEQYCLNPEHAPEALAVVSVPLGVIGSLLHAVRDYFQVMDLVKRPVEPMSVEERRKKAGELRRALQTLKEDAATATEGMADLKARIASKFVTVRDEYDDTMCPLHDDLEKKTEDFLKVLSGDIPAEEGATGEGECPDAM | not soluble |
| GPGSMSARPSVSVYSASSDSVVGTCPLPAVFTAPIRSDIVKFVHTNMAKNSRQAYAVNRLSGMNHSAHSWGTGRAVARIPRISGGGTSTSGAGAFGNMCRGGRMFAPTKIFRRWHRKINLHQKRFAVVSALAASSVPSLVMSRGHQIGNVPEVPLVVEDSIQGYEKTKEAMAFLKAIAAIDDVNRVNDSREIRAGRGKMRNRRYVARRGPMLVMPNNKGTRAFRNIFGLDLANVSALNLLHLAPGGHVGRFVIWTQSAFEQLDKIFGTFTEASAVKKGFTLPAPMLTNTDVTRIMQSEEVRRVLKPKKLQAKKASRFQTPTNGMKNRRLRLRLNPYVKRETAAAKGMRNVANRDARRKAKLARVTKAKKAATKSAKQ | not soluble |
| MSLACGEFSLIARYFDRVRSSRLDVELGIGDDCALLNIPEKQTLAISTDTLVAGNHFLPDIDPADLAYKALAVNLSDLAAMGADPAWLTLALTLPDVDEAWLESFSDSLFDLLNYYDMQLIGGDTTRGPLSMTLGIHGFVPMGRALTRSGAKPGDWIYVTGTPGDSAAGLAILQNRLQVADAKDADYLIKRHLRPSPRILQGQALRDLANSAIDLSDGLISDLGHIVKASDCGARIDLALLPFSDALSRHVEPEQALRWALSGGEDYELCFTVPELNRGALDVALGHLGVPFTCIGQMTADIEGLCFIRDGEPVTLDWKGYDHFATPEGGSHHHHHH | soluble |
| MQPAVYILASQRNGTLYIGVTSDLVQRIYQHREHLIEGFTSRYNVTMLVWYELHPTMESAITREKQLKKWNRAWKLQLIEENNVSWQDLWFDII | not soluble |
| MSLTGGVISGLGKGTITSSIGHILKDSGIKVSAVKIDPYINYDAGTMNPYQHGEVFVLDDGGEVDLDLGNYERFMNINLSRDNNITTGKVYLEVIQKERHGDYLGKTVQIIPHITDEIKRRIREVARTSGADVVLIEVGGTVGDIESMPFLEALRQLKREEQNVVFAHVTLVPEIGPTMEQKTKPTQHSVKALREIGIQPDIIFARSKQKLTEETKSRISLFTDVPVEGIISVSDVENVYLLPQMMVNEGLITRLSKLLNMNIEYRDSWTSYAENIRHPRDRVKVAIVGKYVDLHDAYISHKEAFSHVTGNTGIAVDIMWIDSEKVKNDQSVLSEADAILIPGGFGYRGVEGKIAATRYAMENGVPFLGICLGFQVAVIAVARYVLGLDGANSTEFDEKTKYPVVDILPEQRGVKDMGGTMRLGSKKVVIKKGTLAHRIYGADVIYERHRHRYEVNPDYIDMIEKAGFKFSATDEEGIRMEILERPGDESFIATQYHSEFKSRPLDPSKVHLHLVEQALIFKHRRMGENHEGYATAASSQGQEGHHHHHH | soluble |
| MGLLVDGRWQDQWYESSKDGAFQRENAQRRNWVTRDGQAGPSGEGGFAAEAGRYHLYVSLACPWAHRTLILRKLKGLEKLIDVSVVSWLMLENGWTFDQQKGSSGDALDDFQFFHQRYTADDPRYTGRVTVPVLWDKQQQRIVSNESAEIIRMFNAAFDELTGNTLDFYPSALQSSIDELNEQIYPKVNNGVYRAGFATSQGAYEEAFDDVFAELDVLENLLGEKRYLTGKHLTEADIRLFTTIVRFDAVYYSHFKCNLRRIADYPNLSNWLRELYQWPGIAETVDFEHIKGHYYASHRTINPTGIIPKGPALDLQAGHDRERLSGEGAWSK | not soluble |
| MKVLFRSDSSSQIGFGHIKRDLVLAKQYSDVSFACLPLEGSLIDEIPYPVYELSSESIYELINLIKEEKFELLIIDHYGISVDDEKLIKLETGVKILSFDDEIKPHHCDILLNVNAYAKASDYEGLVPFKCEVRCGFSYALIREEFYQEAKENRKKKYDFFICMGGTDIKNLSLQIASELPKTKIISIATSSSNPNLKKLQKFAKLHNNIRLFIDHENIAKLMNESNKLIISASSLVNEALLLKANFKAICYVKNQESTATWLAKKGYEVEYKYLEHHHHHH | soluble |
| VKSNKGFEAIAWDPLRQRLIIGEERPPKLYTWNTDGRSPLKGEKQPLPSDELDLRNLSALGVDPRTGHLLVLSADSNMLLELDEQGQQVSFMTLLGGFNGLE | not soluble |
| MGSDKIHHHHHHNEMTEMNPDTNRTIGLDVYTEVQTRGTETTTSTLKANAGFGIFAYQTSSAGWNSEKGNTTPNFMYNEHATWTSDSWGYTNLRFWPIDDKKITFFAYAPYESKPEVGTDQKITLSGQNAKGAPTITFEVKTSNNWKDMIDLVTDCHTAIQDQTNESNKGTVQFKFSHVLTQIANIKVKPDVNLGTDTKIFVTGLKLDPGSTTLYNKAVYKFDNDTWEAISPDASYFSTEQDLSDFLNKTTTDQWGYNKSSINVSDDQNATALFSDTEALYFIPVNNKNGTTNAGDLKLKINYDIVTKVTDTSNLTSTITNKEVSLPKNTFKKGTKHTYVLTIKMNAIKITVEDNMEGWTDDSDSDINVEK | not soluble |
| MSIALLAAATSSMAQSLDKMNWLNEPQQWEIKEGKALVMDVPAKTDFWRISHYGFTVDDGPFYYATYGGEFEVKVKITGNYVTTFDQMGLMLRIDHENWIKAGVEYVDGKQNVSAVVTHRTSDWSVVQLPDAPRSLWIKAVRRLDAVEIFFSRDDKEYTMIRTCWLQDNCPVMVGLMGACPDGKGFTATFEEFKVTPLADQRRLEWAKKQADKLEHHHHHH | not soluble |
